# Reference: the Immune Epitope Database (IEDB)
# Experiments:
# Test in all cases: IEDB peptide-MHC binding, purified MHC/competitive/fluorescence; filed as Kd, often an IC50 or EC50 that approximates it; ≥ and ≤ were set here for values at or beyond the usual limits of such assays
# Conditions in all cases: source organism: Plasmodium falciparum
# HLA-A*02:01 = target: HLA-A*02:01
# HLA-A*24:02 = target: HLA-A*24:02
# HLA-A*01:01 = target: HLA-A*01:01
# HLA-B*44:02 = target: HLA-B*44:02
# HLA-A*03:01 = target: HLA-A*03:01
# HLA-B*07:02 = target: HLA-B*07:02
sequence,measurement,setting,value
CKMEKCSSV,Kd,HLA-A*02:01,≥ 100 µM
CKMEKCSSVF,Kd,HLA-A*24:02,≥ 250 µM
CSSVFNVVN,Kd,HLA-A*01:01,≥ 82.5 µM
DELDYANDI,Kd,HLA-B*44:02,≥ 277 µM
DENANANNA,Kd,HLA-B*44:02,≥ 896 µM
ELDYENDIEK,Kd,HLA-A*01:01,≥ 100 µM
EWSPCSVTCG,Kd,HLA-A*24:02,≥ 685 µM
HIKEYLNKI,Kd,HLA-A*02:01,≥ 259 µM
HITEYLKKI,Kd,HLA-A*02:01,≥ 148 µM
IEKKICKMEK,Kd,HLA-A*03:01,≥ 100 µM
IEQYLKKIQY,Kd,HLA-A*01:01,≥ 100 µM
same,Kd,HLA-B*44:02,≥ 157 µM
IQNSLSTEW,Kd,HLA-B*44:02,≥ 136 µM
same,Kd,HLA-A*24:02,≥ 21.3 µM
KDELDYENDI,Kd,HLA-B*44:02,≥ 100 µM
KEYLNKIQNS,Kd,HLA-B*44:02,≥ 100 µM
KMEKCSSVF,Kd,HLA-B*07:02,≥ 100 µM
same,Kd,HLA-A*01:01,≥ 100 µM
KPGSADKPKD,Kd,HLA-B*07:02,≥ 100 µM
KPGSANKPKD,Kd,HLA-B*07:02,≥ 100 µM
LDYANDIEK,Kd,HLA-A*03:01,≥ 100 µM
LIMVLSFLF,Kd,HLA-A*24:02,19.3 µM
LSTEWSPCS,Kd,HLA-A*01:01,≥ 100 µM
MEKCSSVFN,Kd,HLA-B*44:02,≥ 143 µM
MPNDPNRNV,Kd,HLA-B*07:02,≥ 511 µM
same,Kd,HLA-B*44:02,≥ 100 µM
NEEPSDKHI,Kd,HLA-B*44:02,≥ 100 µM
NEEPSDKHIK,Kd,HLA-A*01:01,≥ 100 µM
same,Kd,HLA-B*44:02,≥ 100 µM
NEEPSDQHI,Kd,HLA-B*44:02,≥ 100 µM
NPDPNANPNV,Kd,HLA-B*07:02,≥ 100 µM
NPNANPNAN,Kd,HLA-B*07:02,≥ 100 µM
NPNANPNANP,Kd,HLA-B*07:02,≥ 100 µM
NPNVDPNANP,Kd,HLA-B*07:02,≥ 100 µM
NSSIGLIMV,Kd,HLA-A*01:01,≥ 215 µM
NVDENANAN,Kd,HLA-A*01:01,≥ 100 µM
NVDENANANN,Kd,HLA-A*01:01,≥ 667 µM
NVDPNANPNV,Kd,HLA-A*01:01,≥ 100 µM
PSDKHIEQY,Kd,HLA-A*01:01,2 µM
PSDKHIKEY,Kd,HLA-A*01:01,≥ 24.8 µM
PSDKHITEY,Kd,HLA-A*01:01,2.67 µM
QLDYENDIEK,Kd,HLA-A*01:01,≥ 726 µM
same,Kd,HLA-A*03:01,≥ 100 µM
QVRIKPGSA,Kd,HLA-B*07:02,≥ 134 µM
RIKPGSADK,Kd,HLA-A*03:01,17.7 µM
RIKPGSANK,Kd,HLA-A*03:01,≥ 21.3 µM
SADKPKDQLD,Kd,HLA-A*01:01,8.97 µM
SPCSVTCGNG,Kd,HLA-B*07:02,≥ 100 µM
STEWSPCSV,Kd,HLA-A*01:01,3.18 µM
SVFNVVNSSI,Kd,HLA-B*07:02,≥ 100 µM
same,Kd,HLA-A*03:01,≥ 100 µM
same,Kd,HLA-A*02:01,≥ 342 µM
SVTCGNGIQV,Kd,HLA-B*07:02,≥ 100 µM
same,Kd,HLA-A*02:01,≥ 489 µM
TEWSPCSVT,Kd,HLA-B*44:02,≥ 100 µM
TEYLKKIQN,Kd,HLA-B*44:02,≥ 100 µM
VTCGNGIQV,Kd,HLA-A*01:01,≥ 100 µM
same,Kd,HLA-A*03:01,≥ 100 µM
YLKIIQNSL,Kd,HLA-A*02:01,4.88 µM
YLKKIQNSL,Kd,HLA-B*07:02,9.2 µM
same,Kd,HLA-A*02:01,2.18 µM
same,Kd,HLA-A*24:02,11.2 µM
YLKKIQYSL,Kd,HLA-A*02:01,2.58 µM
